Test results reported in patent US20200085917A1.

What was measured:
Assay in all cases: GST pull-down, LC-MS/MS
[1] = target: T1, Acsl6_IPI:IPI00123390.8 (mouse) (UniProt Q91WC3)
T1 sequence (looked up): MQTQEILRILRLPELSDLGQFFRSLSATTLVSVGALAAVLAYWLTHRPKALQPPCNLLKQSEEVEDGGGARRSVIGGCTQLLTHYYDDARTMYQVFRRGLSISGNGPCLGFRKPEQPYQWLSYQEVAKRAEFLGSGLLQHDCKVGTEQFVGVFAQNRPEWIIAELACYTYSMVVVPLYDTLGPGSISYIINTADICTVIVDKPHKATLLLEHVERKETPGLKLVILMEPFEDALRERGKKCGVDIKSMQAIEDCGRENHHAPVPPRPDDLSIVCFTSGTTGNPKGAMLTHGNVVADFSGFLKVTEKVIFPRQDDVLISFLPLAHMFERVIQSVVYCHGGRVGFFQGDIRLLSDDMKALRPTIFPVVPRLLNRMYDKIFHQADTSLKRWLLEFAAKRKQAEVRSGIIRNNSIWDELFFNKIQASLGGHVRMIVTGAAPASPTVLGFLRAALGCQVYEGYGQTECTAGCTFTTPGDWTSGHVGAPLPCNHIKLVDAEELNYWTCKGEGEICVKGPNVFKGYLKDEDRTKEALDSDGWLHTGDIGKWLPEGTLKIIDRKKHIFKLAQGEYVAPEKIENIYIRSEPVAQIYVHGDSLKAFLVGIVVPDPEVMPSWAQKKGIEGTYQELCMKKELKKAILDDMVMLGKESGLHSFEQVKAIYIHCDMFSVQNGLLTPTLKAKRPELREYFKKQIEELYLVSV

[2] = target: T2, Atp5f1_IPI:IPI00341282.2 (mouse) (UniProt Q9CQQ7)
T2 sequence (looked up): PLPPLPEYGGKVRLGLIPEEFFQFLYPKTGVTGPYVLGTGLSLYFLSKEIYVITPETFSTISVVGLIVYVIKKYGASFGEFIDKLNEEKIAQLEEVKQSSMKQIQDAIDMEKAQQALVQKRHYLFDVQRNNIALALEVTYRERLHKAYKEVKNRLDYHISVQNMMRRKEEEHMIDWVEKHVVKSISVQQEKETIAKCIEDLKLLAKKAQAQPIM

[3] = target: T3, C1qbp_IPI:IPI00132799.4 (mouse) (UniProt O35658)
T3 sequence (looked up): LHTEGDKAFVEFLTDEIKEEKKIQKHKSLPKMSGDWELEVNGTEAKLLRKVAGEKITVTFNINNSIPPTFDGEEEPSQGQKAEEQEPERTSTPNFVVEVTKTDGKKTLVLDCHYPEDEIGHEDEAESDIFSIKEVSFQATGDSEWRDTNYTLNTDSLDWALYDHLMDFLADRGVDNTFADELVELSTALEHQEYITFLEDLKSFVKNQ

[4] = target: Cend1_IPI:IPI00122826.1 (mouse) (UniProt Q9JKC6)
[5] = target: T4, Cplx2_IPI:IPI00111501.1 (mouse) (UniProt P84086)
T4 sequence (looked up): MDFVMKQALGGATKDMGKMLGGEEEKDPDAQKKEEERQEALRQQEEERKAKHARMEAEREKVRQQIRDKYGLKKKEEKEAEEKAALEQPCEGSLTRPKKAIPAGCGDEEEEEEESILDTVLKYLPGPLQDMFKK

[6] = target: T5, Gbas_IPI:IPI00115827.1 (mouse) (UniProt O55126)
T5 sequence (looked up): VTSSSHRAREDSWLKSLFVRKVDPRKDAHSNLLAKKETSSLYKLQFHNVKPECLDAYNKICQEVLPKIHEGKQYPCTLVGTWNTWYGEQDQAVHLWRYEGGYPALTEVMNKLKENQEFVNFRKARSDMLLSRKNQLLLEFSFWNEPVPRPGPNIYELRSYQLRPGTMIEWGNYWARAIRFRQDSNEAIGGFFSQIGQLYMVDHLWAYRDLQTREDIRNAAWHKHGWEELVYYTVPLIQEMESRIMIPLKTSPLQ

[7] = target: T6, Hmgcl_IPI:IPI00127625.1 (mouse) (UniProt P38060)
T6 sequence (looked up): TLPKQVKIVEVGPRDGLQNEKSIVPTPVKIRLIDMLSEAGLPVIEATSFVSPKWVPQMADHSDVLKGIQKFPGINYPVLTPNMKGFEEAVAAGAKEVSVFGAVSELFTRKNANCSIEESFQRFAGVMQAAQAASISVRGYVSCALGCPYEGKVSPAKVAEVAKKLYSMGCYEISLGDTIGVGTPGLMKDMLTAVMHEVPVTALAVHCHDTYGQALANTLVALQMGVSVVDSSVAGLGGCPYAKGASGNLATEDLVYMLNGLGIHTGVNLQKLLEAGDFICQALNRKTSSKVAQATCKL

[8] = target: Hspa9_IPI:IPI00880839.1 (mouse) (UniProt P38647)
[9] = target: T7, Pfn2_IPI:IPI00227805.6 (mouse) (UniProt Q9JJV2)
T7 sequence (looked up): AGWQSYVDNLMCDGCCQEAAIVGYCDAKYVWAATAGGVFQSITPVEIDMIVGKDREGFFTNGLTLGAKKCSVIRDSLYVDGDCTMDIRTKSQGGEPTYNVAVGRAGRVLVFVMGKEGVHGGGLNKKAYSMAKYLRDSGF

[10] = target: Timm17b_IPI:IPI00129504.1 (mouse) (UniProt Q9Z0V7)
[11] = target: Tomm20_IPI:IPI00120715.1 (mouse) (UniProt Q9DCC8)
Tomm20_IPI:IPI00120715.1 (mouse), sequence (Q9DCC8 whole entry): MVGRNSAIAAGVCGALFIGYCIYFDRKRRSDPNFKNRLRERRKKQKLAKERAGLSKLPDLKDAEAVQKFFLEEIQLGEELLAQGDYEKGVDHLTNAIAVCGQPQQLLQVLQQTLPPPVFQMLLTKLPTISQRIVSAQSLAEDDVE

Cend1_IPI:IPI00122826.1 (mouse), sequence (Q9JKC6 whole entry): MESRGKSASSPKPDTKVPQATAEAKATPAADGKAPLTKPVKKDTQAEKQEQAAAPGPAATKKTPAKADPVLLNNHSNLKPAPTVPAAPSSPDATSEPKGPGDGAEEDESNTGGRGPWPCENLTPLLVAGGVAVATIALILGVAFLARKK
Hspa9_IPI:IPI00880839.1 (mouse), sequence (P38647 47-679 limits assumed): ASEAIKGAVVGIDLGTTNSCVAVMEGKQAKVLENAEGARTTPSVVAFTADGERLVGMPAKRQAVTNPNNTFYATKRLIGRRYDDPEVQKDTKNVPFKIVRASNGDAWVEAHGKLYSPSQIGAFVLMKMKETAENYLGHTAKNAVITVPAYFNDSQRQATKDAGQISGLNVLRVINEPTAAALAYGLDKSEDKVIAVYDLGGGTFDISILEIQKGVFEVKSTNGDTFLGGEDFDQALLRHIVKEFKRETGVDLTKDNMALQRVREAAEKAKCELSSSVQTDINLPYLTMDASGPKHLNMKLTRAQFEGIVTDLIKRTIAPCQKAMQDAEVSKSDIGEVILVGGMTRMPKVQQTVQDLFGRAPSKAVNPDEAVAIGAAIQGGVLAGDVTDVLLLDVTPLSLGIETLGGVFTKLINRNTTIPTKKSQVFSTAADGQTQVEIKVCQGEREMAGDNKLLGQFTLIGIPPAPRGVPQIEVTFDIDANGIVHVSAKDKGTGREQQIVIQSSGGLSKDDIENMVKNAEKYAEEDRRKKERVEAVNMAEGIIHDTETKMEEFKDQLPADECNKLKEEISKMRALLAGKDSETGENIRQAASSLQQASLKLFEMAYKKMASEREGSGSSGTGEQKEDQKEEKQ
Timm17b_IPI:IPI00129504.1 (mouse), sequence (Q9Z0V7 whole entry): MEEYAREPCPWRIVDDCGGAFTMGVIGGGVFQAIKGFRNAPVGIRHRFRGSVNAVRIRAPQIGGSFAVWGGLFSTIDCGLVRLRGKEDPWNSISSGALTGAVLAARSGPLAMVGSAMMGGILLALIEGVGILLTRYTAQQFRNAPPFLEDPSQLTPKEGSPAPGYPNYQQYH
GST-Httex1-23Q, sequence (P08515 1-218, tags or fused parts left off): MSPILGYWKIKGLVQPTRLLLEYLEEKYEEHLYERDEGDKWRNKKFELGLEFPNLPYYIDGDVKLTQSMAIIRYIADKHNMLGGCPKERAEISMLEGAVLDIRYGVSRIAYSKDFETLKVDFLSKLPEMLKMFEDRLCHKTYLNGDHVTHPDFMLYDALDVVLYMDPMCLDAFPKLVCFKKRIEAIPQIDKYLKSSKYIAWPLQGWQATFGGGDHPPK

With “GST-Httex1-23Q (from UniProt P08515 1-218; P42858 1-88)” as the substance, how does the No. of total peptides [1] read?
The No. of total peptides was 2 peptides.

And the No. of unique peptides [1]?
Its No. of unique peptides is 2 peptides.

And the No. of total peptides [2]?
The No. of total peptides was 3 peptides.

And the No. of unique peptides [2]?
The No. of unique peptides was 3 peptides.

What about the No. of total peptides [3] of the same substance?
The No. of total peptides was 6 peptides.

And the No. of unique peptides [3]?
The No. of unique peptides was 3 peptides.

And the No. of total peptides [4]?
Its No. of total peptides is 3 peptides.

And the No. of unique peptides [4]?
The No. of unique peptides was 3 peptides.

And the No. of total peptides [5]?
The No. of total peptides was 1 peptides.

What about the No. of unique peptides [5] of the same substance?
Its No. of unique peptides is 1 peptides.

What about the No. of total peptides [6] of the same substance?
Its No. of total peptides is 2 peptides.

What about the No. of unique peptides [6] of the same substance?
The No. of unique peptides was 2 peptides.

What about the No. of total peptides [7] of the same substance?
Its No. of total peptides is 1 peptides.

And the No. of unique peptides [7]?
The No. of unique peptides was 1 peptides.

And the No. of total peptides [8]?
Its No. of total peptides is 1 peptides.

What about the No. of unique peptides [8] of the same substance?
Its No. of unique peptides is 1 peptides.

And the No. of total peptides [9]?
The No. of total peptides was 1 peptides.

What about the No. of unique peptides [9] of the same substance?
Its No. of unique peptides is 1 peptides.

What about the No. of total peptides [10] of the same substance?
The No. of total peptides was 3 peptides.

And the No. of unique peptides [10]?
The No. of unique peptides was 3 peptides.

And the No. of total peptides [11]?
Its No. of total peptides is 1 peptides.

What about the No. of unique peptides [11] of the same substance?
The No. of unique peptides was 1 peptides.

How did the No. of total peptides [1] turn out when “GST-Httex1-97Q (from UniProt P08515 1-218; P42858 1-88)” was run?
The No. of total peptides was 2 peptides.

What about the No. of unique peptides [1] of the same substance?
The No. of unique peptides was 2 peptides.

What about the No. of total peptides [2] of the same substance?
Its No. of total peptides is 4 peptides.

What about the No. of unique peptides [2] of the same substance?
The No. of unique peptides was 4 peptides.

What about the No. of total peptides [3] of the same substance?
The No. of total peptides was 3 peptides.

What about the No. of unique peptides [3] of the same substance?
Its No. of unique peptides is 2 peptides.

And the No. of total peptides [4]?
The No. of total peptides was 5 peptides.

What about the No. of unique peptides [4] of the same substance?
The No. of unique peptides was 4 peptides.

What about the No. of total peptides [5] of the same substance?
The No. of total peptides was 6 peptides.

And the No. of unique peptides [5]?
The No. of unique peptides was 5 peptides.

And the No. of total peptides [6]?
Its No. of total peptides is 5 peptides.

And the No. of unique peptides [6]?
Its No. of unique peptides is 3 peptides.

And the No. of total peptides [7]?
Its No. of total peptides is 1 peptides.

What about the No. of unique peptides [7] of the same substance?
Its No. of unique peptides is 1 peptides.

And the No. of total peptides [8]?
The No. of total peptides was 1 peptides.

And the No. of unique peptides [8]?
The No. of unique peptides was 1 peptides.

And the No. of total peptides [9]?
Its No. of total peptides is 2 peptides.

And the No. of unique peptides [9]?
The No. of unique peptides was 2 peptides.

And the No. of total peptides [10]?
The No. of total peptides was 1 peptides.

And the No. of unique peptides [10]?
The No. of unique peptides was 1 peptides.

What about the No. of total peptides [11] of the same substance?
The No. of total peptides was 1 peptides.

What about the No. of unique peptides [11] of the same substance?
The No. of unique peptides was 1 peptides.
